{"source": "the MegaScale stability set (Tsuboyama et al. 2023)", "parents": {"B1": {"name": "EHEE_rd2_0191 (parent)", "chain": "TTEYTFTDDEEARRAIEELKKRGLTFRYEKHGTTWRVRVD"}}, "data": [{"variants_of": "B1", "experiment": "folding stability dG (cDNA display proteolysis); higher = more stable", "conditions": "PBS, room temperature", "units": {"folding stability dG": "kJ/mol"}, "values": [{"variant": "TTEYTFVDDEEARRAIEELKKRGLTFRYEKHGTTWRVRVD", "folding stability dG": 7.16}, {"variant": "TTEYTFMDDEEARRAIEELKKRGLTFRYEKHGTTWRVRVD", "folding stability dG": 7.6}, {"variant": "TTEYTFKDDEEARRAIEELKKRGLTFRYEKHGTTWRVRVD", "folding stability dG": 6.77}, {"variant": "TTEYTFHDDEEARRAIEELKKRGLTFRYEKHGTTWRVRVD", "folding stability dG": 8.92}, {"variant": "TTEYTFYDDEEARRAIEELKKRGLTFRYEKHGTTWRVRVD", "folding stability dG": 10.3}, {"variant": "TTEYTFPDDEEARRAIEELKKRGLTFRYEKHGTTWRVRVD", "folding stability dG": 2.83}, {"variant": "TTEYTFLDDEEARRAIEELKKRGLTFRYEKHGTTWRVRVD", "folding stability dG": 7.67}, {"variant": "TTEYTFRDDEEARRAIEELKKRGLTFRYEKHGTTWRVRVD", "folding stability dG": 6.64}, {"variant": "TTEYTFQDDEEARRAIEELKKRGLTFRYEKHGTTWRVRVD", "folding stability dG": 7.87}, {"variant": "TTEYTFTDDEMARRAIEELKKRGLTFRYEKHGTTWRVRVD", "folding stability dG": 8.43}, {"variant": "TTEYTFTDDEDARRAIEELKKRGLTFRYEKHGTTWRVRVD", "folding stability dG": 7.88}, {"variant": "TTEYTFTDDEPARRAIEELKKRGLTFRYEKHGTTWRVRVD", "folding stability dG": 3.15}, {"variant": "TTEYTFTDDESARRAIEELKKRGLTFRYEKHGTTWRVRVD", "folding stability dG": 10.2}, {"variant": "TTEYTFTDDEGARRAIEELKKRGLTFRYEKHGTTWRVRVD", "folding stability dG": 6.11}, {"variant": "TTEYTFTDDEWARRAIEELKKRGLTFRYEKHGTTWRVRVD", "folding stability dG": 6.27}, {"variant": "TTEYTFTDDERARRAIEELKKRGLTFRYEKHGTTWRVRVD", "folding stability dG": 6.43}, {"variant": "TTEYTFTDDENARRAIEELKKRGLTFRYEKHGTTWRVRVD", "folding stability dG": 6.52}, {"variant": "TTEYTFTDDEFARRAIEELKKRGLTFRYEKHGTTWRVRVD", "folding stability dG": 5.73}, {"variant": "TTEYTFTDDEAARRAIEELKKRGLTFRYEKHGTTWRVRVD", "folding stability dG": 9.02}, {"variant": "TTEYTFTDDECARRAIEELKKRGLTFRYEKHGTTWRVRVD", "folding stability dG": 8.97}, {"variant": "TTEYTFTDDEVARRAIEELKKRGLTFRYEKHGTTWRVRVD", "folding stability dG": 7.72}, {"variant": "TTEYTFTDDEIARRAIEELKKRGLTFRYEKHGTTWRVRVD", "folding stability dG": 7.43}, {"variant": "TTEYTFTDDEKARRAIEELKKRGLTFRYEKHGTTWRVRVD", "folding stability dG": 7.23}, {"variant": "TTEYTFTDDETARRAIEELKKRGLTFRYEKHGTTWRVRVD", "folding stability dG": 9.67}, {"variant": "TTEYTFTDDEYARRAIEELKKRGLTFRYEKHGTTWRVRVD", "folding stability dG": 5.39}, {"variant": "TTEYTFTDDEQARRAIEELKKRGLTFRYEKHGTTWRVRVD", "folding stability dG": 8.77}, {"variant": "TTEYTFTDDEHARRAIEELKKRGLTFRYEKHGTTWRVRVD", "folding stability dG": 7.39}, {"variant": "TTEYTFTDDELARRAIEELKKRGLTFRYEKHGTTWRVRVD", "folding stability dG": 7.7}, {"variant": "TTEYTFTEDEEARRAIEELKKRGLTFRYEKHGTTWRVRVD", "folding stability dG": 5.38}, {"variant": "TTEYTFTVDEEARRAIEELKKRGLTFRYEKHGTTWRVRVD", "folding stability dG": 5.69}, {"variant": "TTEYTFTWDEEARRAIEELKKRGLTFRYEKHGTTWRVRVD", "folding stability dG": 2.72}, {"variant": "TTEYTFTLDEEARRAIEELKKRGLTFRYEKHGTTWRVRVD", "folding stability dG": 4.51}, {"variant": "TTEYTFTADEEARRAIEELKKRGLTFRYEKHGTTWRVRVD", "folding stability dG": 5.18}, {"variant": "TTEYTFTTDEEARRAIEELKKRGLTFRYEKHGTTWRVRVD", "folding stability dG": 9.58}, {"variant": "TTEYTFTGDEEARRAIEELKKRGLTFRYEKHGTTWRVRVD", "folding stability dG": 5.55}, {"variant": "TTEYTFTFDEEARRAIEELKKRGLTFRYEKHGTTWRVRVD", "folding stability dG": 3.69}, {"variant": "TTEYTFTQDEEARRAIEELKKRGLTFRYEKHGTTWRVRVD", "folding stability dG": 4.84}, {"variant": "TTEYTFTMDEEARRAIEELKKRGLTFRYEKHGTTWRVRVD", "folding stability dG": 3.75}, {"variant": "TTEYTFTHDEEARRAIEELKKRGLTFRYEKHGTTWRVRVD", "folding stability dG": 5.54}, {"variant": "TTEYTFTYDEEARRAIEELKKRGLTFRYEKHGTTWRVRVD", "folding stability dG": 3.02}, {"variant": "TTEYTFTRDEEARRAIEELKKRGLTFRYEKHGTTWRVRVD", "folding stability dG": 5.81}, {"variant": "TTEYTFTKDEEARRAIEELKKRGLTFRYEKHGTTWRVRVD", "folding stability dG": 5.73}, {"variant": "TTEYTFTIDEEARRAIEELKKRGLTFRYEKHGTTWRVRVD", "folding stability dG": 5.02}, {"variant": "TTEYTFTNDEEARRAIEELKKRGLTFRYEKHGTTWRVRVD", "folding stability dG": 10.1}, {"variant": "TTEYTFTSDEEARRAIEELKKRGLTFRYEKHGTTWRVRVD", "folding stability dG": 10.2}, {"variant": "TTEYTFTDDGEARRAIEELKKRGLTFRYEKHGTTWRVRVD", "folding stability dG": 8.68}, {"variant": "TTEYTFTDDYEARRAIEELKKRGLTFRYEKHGTTWRVRVD", "folding stability dG": 8.21}, {"variant": "TTEYTFTDDLEARRAIEELKKRGLTFRYEKHGTTWRVRVD", "folding stability dG": 8.27}, {"variant": "TTEYTFTDDFEARRAIEELKKRGLTFRYEKHGTTWRVRVD", "folding stability dG": 8.28}, {"variant": "TTEYTFTDDREARRAIEELKKRGLTFRYEKHGTTWRVRVD", "folding stability dG": 8.33}, {"variant": "TTEYTFTDDAEARRAIEELKKRGLTFRYEKHGTTWRVRVD", "folding stability dG": 8.75}, {"variant": "TTEYTFTDDVEARRAIEELKKRGLTFRYEKHGTTWRVRVD", "folding stability dG": 8.43}, {"variant": "TTEYTFTDDQEARRAIEELKKRGLTFRYEKHGTTWRVRVD", "folding stability dG": 8.15}, {"variant": "TTEYTFTDDPEARRAIEELKKRGLTFRYEKHGTTWRVRVD", "folding stability dG": 2.2}, {"variant": "TTEYTFTDDKEARRAIEELKKRGLTFRYEKHGTTWRVRVD", "folding stability dG": 8.28}, {"variant": "TTEYTFTDDMEARRAIEELKKRGLTFRYEKHGTTWRVRVD", "folding stability dG": 8.19}, {"variant": "TTEYTFTDDNEARRAIEELKKRGLTFRYEKHGTTWRVRVD", "folding stability dG": 8.87}, {"variant": "TTEYTFTDDTEARRAIEELKKRGLTFRYEKHGTTWRVRVD", "folding stability dG": 8.46}, {"variant": "TTEYTFTDDSEARRAIEELKKRGLTFRYEKHGTTWRVRVD", "folding stability dG": 7.82}, {"variant": "TTEYTFTDDIEARRAIEELKKRGLTFRYEKHGTTWRVRVD", "folding stability dG": 8.36}, {"variant": "TTEYTFTDDWEARRAIEELKKRGLTFRYEKHGTTWRVRVD", "folding stability dG": 8.08}, {"variant": "TTEYTFTDDDEARRAIEELKKRGLTFRYEKHGTTWRVRVD", "folding stability dG": 9.02}, {"variant": "TTEYTFTDDHEARRAIEELKKRGLTFRYEKHGTTWRVRVD", "folding stability dG": 8.07}]}]}
